Binding result and stimulation of MUS81-EME1 (0.5 nM) cleavage of 3'-flap DNA (6 nM), 20 min data for 3 molecules are collected here from article PMC11791078, “RECQ4-MUS81 interaction contributes to telomere maintenance with implications to Rothmund-Thomson syndrome” (Nature Communications, 2025).

The target of assay [1] is T1, GST-MUS81-EME1 complex (UniProt Q96NY9 1-551; Q96AY2 1-570).
T1 construct: MUS81 subunit of the complex encoded by pGEX-6P-1-MUS81-HisEME1; EME1 subunit of the complex encoded by pGEX-6P-1-MUS81-HisEME1; Plasmid was a gift from Dr. Stephen West and Dr. Curtis Harris; the construct is not described further; source: E. coli Rossetta (DE3) pLysS, purified (Glutathione Sepharose, Heparin, MonoS)
T1 sequence (looked up) 1: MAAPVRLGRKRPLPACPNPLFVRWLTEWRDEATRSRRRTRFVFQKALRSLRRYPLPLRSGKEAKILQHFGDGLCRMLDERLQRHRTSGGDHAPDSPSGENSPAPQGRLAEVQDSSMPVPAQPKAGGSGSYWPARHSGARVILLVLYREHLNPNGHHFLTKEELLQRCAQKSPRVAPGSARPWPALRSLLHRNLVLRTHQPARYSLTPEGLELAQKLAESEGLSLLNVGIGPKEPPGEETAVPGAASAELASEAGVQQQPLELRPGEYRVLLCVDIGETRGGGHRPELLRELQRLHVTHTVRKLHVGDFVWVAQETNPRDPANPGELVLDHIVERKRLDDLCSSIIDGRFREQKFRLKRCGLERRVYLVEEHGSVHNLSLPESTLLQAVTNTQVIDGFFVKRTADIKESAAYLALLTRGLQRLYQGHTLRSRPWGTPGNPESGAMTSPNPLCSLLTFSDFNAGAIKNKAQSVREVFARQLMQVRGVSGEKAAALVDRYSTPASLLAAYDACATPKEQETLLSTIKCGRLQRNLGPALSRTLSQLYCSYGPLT
T1 sequence (looked up) 2: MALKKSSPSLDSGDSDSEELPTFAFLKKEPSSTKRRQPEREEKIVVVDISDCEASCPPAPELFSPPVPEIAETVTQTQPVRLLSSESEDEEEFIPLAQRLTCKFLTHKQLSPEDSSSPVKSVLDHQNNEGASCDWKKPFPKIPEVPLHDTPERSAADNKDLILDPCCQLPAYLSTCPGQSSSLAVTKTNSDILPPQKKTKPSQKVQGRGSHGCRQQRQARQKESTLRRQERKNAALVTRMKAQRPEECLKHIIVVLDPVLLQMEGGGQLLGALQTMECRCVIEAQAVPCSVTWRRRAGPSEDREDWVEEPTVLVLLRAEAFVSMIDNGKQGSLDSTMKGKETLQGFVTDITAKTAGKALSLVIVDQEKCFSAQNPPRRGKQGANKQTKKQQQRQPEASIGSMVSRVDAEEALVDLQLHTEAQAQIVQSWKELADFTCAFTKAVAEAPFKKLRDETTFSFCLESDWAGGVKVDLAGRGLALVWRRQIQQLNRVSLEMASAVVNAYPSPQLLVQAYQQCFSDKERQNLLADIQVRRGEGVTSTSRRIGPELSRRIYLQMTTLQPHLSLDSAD
Briefly: pull-down; purified GST-MUS81-EME1, GST-MUS81 or GST-MUS81 fragments (5 µg) incubated with MBP-tagged RECQ4 fragments (5 µg) and Glutathione Sepharose 4 Fast Flow beads in 1X K buffer with 150 mM KCl, 0.01% NP40, 1 mM DTT, 30 min, 4 °C; flow-through and bound fractions on SDS-PAGE, Coomassie blue. The settings on record: both partners purified.

The target of assay [2] is GST-MUS81-EME1 complex (UniProt Q96NY9).

Where only a bound is given, the exact number is not on record here.

B1: MBP-RECQ4 (1-400) (domain or fragment, UniProt O94761 1-400, looked up)
chain: MERLRDVRERLQAWERAFRRQRGRRPSQDDVEAAPEETRALYREYRTLKRTTGQAGGGLRSSESLPAAAEEAPEPRCWGPHLNRAATKSPQSTPGRSRQGSVPDYGQRLKANLKGTLQAGPALGRRPWPLGRASSKASTPKPPGTGPVPSFAEKVSDEPPQLPEPQPRPGRLQHLQASLSQRLGSLDPGWLQRCHSEVPDFLGAPKACRPDLGSEESQLLIPGESAVLGPGAGSQGPEASAFQEVSIRVGSPQPSSSGGEKRRWNEEPWESPAQVQQESSQAGPPSEGAGAVAVEEDPPGEPVQAQPPQPCSSPSNPRYHGLSPSSQARAGKAEGTAPLHIFPRLARHDRGNYVRLNMKQKHYVRGRALRSRLLRKQAWKQKWRKKGECFGGGGATVTTK
notes: RECQ4 residues 1-400; cloned into pMAL-c2x from pET32a-RECQ4-9XHis; also called fragment (1-400); RECQ4 truncation (1-400 aa); source: E. coli BL21(DE3) pLysS, purified (His-Select nickel, amylose, MonoS)
Turning to B1, the binding result with GST-MUS81-EME1 complex [1] is on record as “binds”.

B2: RECQ4 (WT), full-length (natural protein)
chain: MERLRDVRERLQAWERAFRRQRGRRPSQDDVEAAPEETRALYREYRTLKRTTGQAGGGLRSSESLPAAAEEAPEPRCWGPHLNRAATKSPQSTPGRSRQGSVPDYGQRLKANLKGTLQAGPALGRRPWPLGRASSKASTPKPPGTGPVPSFAEKVSDEPPQLPEPQPRPGRLQHLQASLSQRLGSLDPGWLQRCHSEVPDFLGAPKACRPDLGSEESQLLIPGESAVLGPGAGSQGPEASAFQEVSIRVGSPQPSSSGGEKRRWNEEPWESPAQVQQESSQAGPPSEGAGAVAVEEDPPGEPVQAQPPQPCSSPSNPRYHGLSPSSQARAGKAEGTAPLHIFPRLARHDRGNYVRLNMKQKHYVRGRALRSRLLRKQAWKQKWRKKGECFGGGGATVTTKESCFLNEQFDHWAAQCPRPASEEDTDAVGPEPLVPSPQPVPEVPSLDPTVLPLYSLGPSGQLAETPAEVFQALEQLGHQAFRPGQERAVMRILSGISTLLVLPTGAGKSLCYQLPALLYSRRSPCLTLVVSPLLSLMDDQVSGLPPCLKAACIHSGMTRKQRESVLQKIRAAQVHVLMLTPEALVGAGGLPPAAQLPPVAFACIDEAHCLSQWSHNFRPCYLRVCKVLRERMGVHCFLGLTATATRRTASDVAQHLAVAEEPDLHGPAPVPTNLHLSVSMDRDTDQALLTLLQGKRFQNLDSIIIYCNRREDTERIAALLRTCLHAAWVPGSGGRAPKTTAEAYHAGMCSRERRRVQRAFMQGQLRVVVATVAFGMGLDRPDVRAVLHLGLPPSFESYVQAVGRAGRDGQPAHCHLFLQPQGEDLRELRRHVHADSTDFLAVKRLVQRVFPACTCTCTRPPSEQEGAVGGERPVPKYPPQEAEQLSHQAAPGPRRVCMGHERALPIQLTVQALDMPEEAIETLLCYLELHPHHWLELLATTYTHCRLNCPGGPAQLQALAHRCPPLAVCLAQQLPEDPGQGSSSVEFDMVKLVDSMGWELASVRRALCQLQWDHEPRTGVRRGTGVLVEFSELAFHLRSPGDLTAEEKDQICDFLYGRVQARERQALARLRRTFQAFHSVAFPSCGPCLEQQDEERSTRLKDLLGRYFEEEEGQEPGGMEDAQGPEPGQARLQDWEDQVRCDIRQFLSLRPEEKFSSRAVARIFHGIGSPCYPAQVYGQDRRFWRKYLHLSFHALVGLATEELLQVAR
The molecule B2 showed a stimulation of MUS81-EME1 (0.5 nM) cleavage of 3'-flap DNA (6 nM), 20 min at 37 °C; RECQ4 5, 25 and 50 nM with GST-MUS81-EME1 complex [2] greater than 10 fold.

B3: MBP-RECQ4 (1-492) (domain or fragment, UniProt O94761 1-492, looked up)
chain: MERLRDVRERLQAWERAFRRQRGRRPSQDDVEAAPEETRALYREYRTLKRTTGQAGGGLRSSESLPAAAEEAPEPRCWGPHLNRAATKSPQSTPGRSRQGSVPDYGQRLKANLKGTLQAGPALGRRPWPLGRASSKASTPKPPGTGPVPSFAEKVSDEPPQLPEPQPRPGRLQHLQASLSQRLGSLDPGWLQRCHSEVPDFLGAPKACRPDLGSEESQLLIPGESAVLGPGAGSQGPEASAFQEVSIRVGSPQPSSSGGEKRRWNEEPWESPAQVQQESSQAGPPSEGAGAVAVEEDPPGEPVQAQPPQPCSSPSNPRYHGLSPSSQARAGKAEGTAPLHIFPRLARHDRGNYVRLNMKQKHYVRGRALRSRLLRKQAWKQKWRKKGECFGGGGATVTTKESCFLNEQFDHWAAQCPRPASEEDTDAVGPEPLVPSPQPVPEVPSLDPTVLPLYSLGPSGQLAETPAEVFQALEQLGHQAFRPGQERAVMRI
notes: cloned into pMAL-c2x from pET32a-RECQ4-9XHis; source: E. coli BL21(DE3) pLysS, purified (His-Select nickel, amylose)
With B3, the binding result with GST-MUS81-EME1 complex [1] was “binds”.
